For the assay, the target named is WDR5 (Homo sapiens, UniProt P61964). Nature of the assay: biolayer interferometry. For orientation: Biolayer interferometry detects binding as a change in optical thickness at a sensor tip.

Take LNPHGAARAEVYLR [MLL4Win]: the Kd – broadly, the free concentration of one partner at which half of the binding sites on the other are occupied at equilibrium, for simple one-to-one binding – is 460 nM.
